Consider one substance from paper PMC7002446.

The experiment has as its target transferrin receptor 1 (TfR1) (human (endogenous in gastric cancer patient tissue and human GC cell lines)) (UniProt P02786).

Chain of doxorubicin-loaded HFn nanocarrier (HFn-Dox) (P02794 whole entry): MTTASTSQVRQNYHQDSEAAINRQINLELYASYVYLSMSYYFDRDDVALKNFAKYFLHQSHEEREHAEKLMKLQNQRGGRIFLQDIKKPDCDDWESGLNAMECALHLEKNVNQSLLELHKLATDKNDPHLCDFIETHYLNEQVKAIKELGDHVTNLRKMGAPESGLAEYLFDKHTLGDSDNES
Chain of transferrin receptor 1 (TfR1) (human (endogenous in gastric cancer patient tissue and human GC cell lines)) (P02786 whole entry): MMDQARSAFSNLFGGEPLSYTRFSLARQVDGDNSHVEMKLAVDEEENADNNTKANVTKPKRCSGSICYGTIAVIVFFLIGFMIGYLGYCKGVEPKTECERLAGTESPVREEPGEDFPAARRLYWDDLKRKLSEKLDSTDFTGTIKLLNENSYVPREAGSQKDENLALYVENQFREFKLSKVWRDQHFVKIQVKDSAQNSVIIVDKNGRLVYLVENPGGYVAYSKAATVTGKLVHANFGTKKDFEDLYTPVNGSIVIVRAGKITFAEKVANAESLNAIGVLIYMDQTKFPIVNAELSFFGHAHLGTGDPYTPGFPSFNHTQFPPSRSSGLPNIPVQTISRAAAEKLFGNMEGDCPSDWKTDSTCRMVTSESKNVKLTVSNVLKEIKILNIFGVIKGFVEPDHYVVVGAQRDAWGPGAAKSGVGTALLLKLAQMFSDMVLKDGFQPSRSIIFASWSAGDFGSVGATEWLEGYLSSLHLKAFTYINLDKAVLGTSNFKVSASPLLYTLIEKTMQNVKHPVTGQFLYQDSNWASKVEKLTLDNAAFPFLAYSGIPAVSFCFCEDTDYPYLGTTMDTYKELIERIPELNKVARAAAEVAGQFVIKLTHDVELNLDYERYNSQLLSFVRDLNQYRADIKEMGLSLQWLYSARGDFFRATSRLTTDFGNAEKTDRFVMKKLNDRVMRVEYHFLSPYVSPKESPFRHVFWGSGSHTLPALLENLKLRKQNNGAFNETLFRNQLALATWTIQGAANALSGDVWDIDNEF

For “doxorubicin-loaded HFn nanocarrier (HFn-Dox) (from UniProt P02794 1-183) (natural protein)”, the tumor growth inhibition (TGI) rate in TfR1-positive GC-PDX mouse models treated with HFn-Dox (against 41.6% for free Dox) came to 91.1%.
